Measured values reported in publication PMC6987200 (Nature Communications, 2020).
Several values for one entry are separate records, joined by “and”; a condition that tells them apart may be missing. Equal values may be shown once.

T1: aquaporin channel (AqpZ) fused to GFP, P60844
T1 chain: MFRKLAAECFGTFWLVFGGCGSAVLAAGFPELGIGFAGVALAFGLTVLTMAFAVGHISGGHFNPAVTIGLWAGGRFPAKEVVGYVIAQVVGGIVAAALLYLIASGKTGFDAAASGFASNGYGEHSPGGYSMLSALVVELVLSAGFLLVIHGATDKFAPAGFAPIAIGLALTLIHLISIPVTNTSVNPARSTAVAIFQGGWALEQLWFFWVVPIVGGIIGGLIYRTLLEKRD

B1: aquaporin channel (AqpZ) fused to GFP, P60844 1-231 (natural protein)
chain: T1 chain
B2: OmpF (natural protein, UniProt P02931 23-362, looked up)
chain: AEIYNKDGNKVDLYGKAVGLHYFSKGNGENSYGGNGDMTYARLGFKGETQINSDLTGYGQWEYNFQGNNSEGADAQTGNKTRLAFAGLKYADVGSFDYGRNYGVVYDALGYTDMLPEFGGDTAYSDDFFVGRVGGVATYRNSNFFGLVDGLNFAVQYLGKNERDTARRSNGDGVGGSISYEYEGFGIVGAYGAADRTNLQEAQPLGNGKKAEQWATGLKYDANNIYLAANYGETRNATPITNKFTNTSGFANKTQDVLLVAQYQFDFGLRPSIAYTKSKAKDVEGIGDVDLVNYFEVGATYYFNKNMSTYVDYIINQIDSDNKLGVGSDDTVAVGIVYQF
notes: OmpF, a bacterial outer membrane protein; also called trimeric OmpF; source: detergent exchanged on Superdex 200

How the values were obtained:
[1] = biological target: T1, aquaporin channel (AqpZ) fused to GFP, …; assay: native MS; AqpZ-GFP after extraction with OGD batches and IMAC; MS buffer 200 mM NH4OAc, pH 6.8, with detergent; modified Q Exactive, HCD 200 V; conditions: remark: other sources report otherwise
[2] = biological target: the molecule itself; assay: native MS; OmpF after detergent exchange from n-octyl-β-D-glucopyranoside to OGDs 1-3 on Superdex 200; MS buffer 200 mM NH4OAc, pH 6.8; HCD 200 V

Row | Binder | stoichiometry N [1] | stoichiometry N [2]
1 | B1 | 4 and 2 | 
2 | B2 |  | 3
